Our source for the PLA dots per nuclei (dots per nuclei) values is article PMC6588460.

The test concerns the target AKAP95 (human (endogenous in HEK293T)) (UniProt O43823). Kind of test: proximity ligation.
Chain of UniProt O43823 (O43823 whole entry): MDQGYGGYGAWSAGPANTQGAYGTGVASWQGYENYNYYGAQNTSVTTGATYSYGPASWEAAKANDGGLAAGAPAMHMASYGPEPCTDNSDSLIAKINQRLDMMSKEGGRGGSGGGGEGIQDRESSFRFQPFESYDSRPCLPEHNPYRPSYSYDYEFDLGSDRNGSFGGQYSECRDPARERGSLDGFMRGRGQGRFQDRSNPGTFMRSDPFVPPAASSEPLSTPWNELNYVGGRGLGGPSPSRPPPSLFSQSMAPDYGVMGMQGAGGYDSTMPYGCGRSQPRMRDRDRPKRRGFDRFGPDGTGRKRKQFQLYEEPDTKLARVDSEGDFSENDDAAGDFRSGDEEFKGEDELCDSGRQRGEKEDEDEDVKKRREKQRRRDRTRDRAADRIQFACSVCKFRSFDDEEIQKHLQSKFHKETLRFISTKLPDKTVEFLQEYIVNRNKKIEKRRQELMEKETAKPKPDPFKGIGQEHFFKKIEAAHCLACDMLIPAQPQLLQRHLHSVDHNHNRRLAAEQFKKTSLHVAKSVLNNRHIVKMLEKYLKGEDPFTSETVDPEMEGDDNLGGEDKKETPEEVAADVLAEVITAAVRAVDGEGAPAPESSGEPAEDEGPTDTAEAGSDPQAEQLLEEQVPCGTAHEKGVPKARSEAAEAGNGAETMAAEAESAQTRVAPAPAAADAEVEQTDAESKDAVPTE

PDE4D5 (enzyme) showed a PLA dots per nuclei (dots per nuclei) of 3.8.
